Laboratory results from the Human Domainome abundance scans (Beltran et al. 2025).
± gives the uncertainty stated by the source.

B1: Myocardin-related transcription factor A, residues 341 to 383; numbered along this chain, Q969V6 (parent)
chain: GALPANLDDMKVAELKQELKLRSLPVSGTKTELIERLRAYQDQ

Variants of: B1
Experiment: abundance fitness (aPCA) (normalised: wild type 0, dead -1); higher = more abundant; growth selection in yeast, the domain comes from the species named
Details: Homo sapiens

Row | Variant | abundance fitness
1 | GALPANLDDMKVAELKQELKLRSIPVSGTKTELIERLRAYQDQ [L24I] | -0.425 ± 0.11
2 | GALPANLDDMKVAELKQELKLRSMPVSGTKTELIERLRAYQDQ [L24M] | -0.091 ± 0.078
3 | GALPANLDDMKVAELKQELKSRSLPVSGTKTELIERLRAYQDQ [L21S] | -0.089 ± 0.06
4 | GALPANLDDMKVAELKQELKVRSLPVSGTKTELIERLRAYQDQ [L21V] | -0.004 ± 0.068
5 | GALPANLDDMKVAELKQELKGRSLPVSGTKTELIERLRAYQDQ [L21G] | -0.067 ± 0.065
6 | GALPANLDDMKVAELKQELKTRSLPVSGTKTELIERLRAYQDQ [L21T] | 0.094 ± 0.085
7 | GALPANLDDMKVAELKQELKERSLPVSGTKTELIERLRAYQDQ [L21E] | 0.098 ± 0.071
8 | GALPANLDDMKVAELKQELKPRSLPVSGTKTELIERLRAYQDQ [L21P] | -0.593 ± 0.13
9 | GALPANLDDMKVAELKQELKWRSLPVSGTKTELIERLRAYQDQ [L21W] | -0.283 ± 0.078
10 | GALPANLDDMKVAELKQELKRRSLPVSGTKTELIERLRAYQDQ [L21R] | 0.057 ± 0.063
11 | GALPANLDDMKVAELKQELKDRSLPVSGTKTELIERLRAYQDQ [L21D] | 0.041 ± 0.081
12 | GALPANLDDMKVAELKQELKQRSLPVSGTKTELIERLRAYQDQ [L21Q] | 0.061 ± 0.1
13 | GALPANLDDMKVAELKQELKNRSLPVSGTKTELIERLRAYQDQ [L21N] | -0.08 ± 0.45
14 | GALPANLDDMKVAELKQELKHRSLPVSGTKTELIERLRAYQDQ [L21H] | 0.003 ± 0.23
15 | GALPANLDDMKVAELKQELKFRSLPVSGTKTELIERLRAYQDQ [L21F] | -0.177 ± 0.091
16 | GALPANLDDMKVAELKQELKCRSLPVSGTKTELIERLRAYQDQ [L21C] | -0.229 ± 0.14
17 | GALPANLDDMKVAELKQELKARSLPVSGTKTELIERLRAYQDQ [L21A] | 0.038 ± 0.075
18 | GALPANLDDMKVAELKQELKLRSLPVSCTKTELIERLRAYQDQ [G28C] | -0.608 ± 0.25
19 | GALPANLDDMKVAELKQELKLRSLPVSATKTELIERLRAYQDQ [G28A] | -1.02 ± 0.1
20 | GALPANLDDMKVAELKQELKLRSLPVSETKTELIERLRAYQDQ [G28E] | -0.628 ± 0.088

Row | Variant | abundance fitness
21 | GALPANLDDMKVAELKQELKLRSLPVSDTKTELIERLRAYQDQ [G28D] | -0.758 ± 0.13
22 | GALPANLDDMKVAELKQELKLRWLPVSGTKTELIERLRAYQDQ [S23W] | -0.256 ± 0.083
23 | GALPANLDDMKVAELKQELKLRMLPVSGTKTELIERLRAYQDQ [S23M] | -0.162 ± 0.095
24 | GALPANLDDMKVAELKQELKLRHLPVSGTKTELIERLRAYQDQ [S23H] | 0.176 ± 0.11
25 | GALPANLDDMKVAELKQELKLRRLPVSGTKTELIERLRAYQDQ [S23R] | -0.036 ± 0.061
26 | GALPANLDDMKVAELKQELKLRKLPVSGTKTELIERLRAYQDQ [S23K] | 0.142 ± 0.15
27 | GALPANLDDMKVAELKQELKLRPLPVSGTKTELIERLRAYQDQ [S23P] | -0.834 ± 0.28
28 | GALPANLDDMKVAELKQELKLRLLPVSGTKTELIERLRAYQDQ [S23L] | -0.018 ± 0.071
29 | GALPANLDDMKVAELKQELKLRDLPVSGTKTELIERLRAYQDQ [S23D] | 0.073 ± 0.072
30 | GALPANLDDMKVAELKQELKLRQLPVSGTKTELIERLRAYQDQ [S23Q] | -0.101 ± 0.083
31 | GALPANLDDMKVAELKQELKLRGLPVSGTKTELIERLRAYQDQ [S23G] | 0.291 ± 0.063
32 | GALPANLDDMKVAELKQELKLRILPVSGTKTELIERLRAYQDQ [S23I] | -0.307 ± 0.084
33 | GALPANLDDMKVAELKQELKLRYLPVSGTKTELIERLRAYQDQ [S23Y] | 0.038 ± 0.2
34 | GALPANLDDMKVAELKQELKLRNLPVSGTKTELIERLRAYQDQ [S23N] | 0.008 ± 0.071
35 | GALPANLDDMKVAELKQELKLRVLPVSGTKTELIERLRAYQDQ [S23V] | -0.22 ± 0.072
36 | GALPANLDDMKVAELKQELKLRCLPVSGTKTELIERLRAYQDQ [S23C] | 0.052 ± 0.11
37 | GALPANLDDMKVAELKQELKLRELPVSGTKTELIERLRAYQDQ [S23E] | 0.092 ± 0.084
38 | GALPANLDDMKVAELKQELKLRFLPVSGTKTELIERLRAYQDQ [S23F] | -0.205 ± 0.14
39 | GALPANLDDMKVAELKQELKLRALPVSGTKTELIERLRAYQDQ [S23A] | 0.018 ± 0.063
40 | GALPANLDDMKVAELKQELVLRSLPVSGTKTELIERLRAYQDQ [K20V] | -0.041 ± 0.072

Row | Variant | abundance fitness
41 | GALPANLDDMKVAELKQELTLRSLPVSGTKTELIERLRAYQDQ [K20T] | -0.145 ± 0.1
42 | GALPANLDDMKVAELKQELYLRSLPVSGTKTELIERLRAYQDQ [K20Y] | 0.657 ± 0.28
43 | GALPANLDDMKVAELKQELSLRSLPVSGTKTELIERLRAYQDQ [K20S] | 0.05 ± 0.075
44 | GALPANLDDMKVAELKQELWLRSLPVSGTKTELIERLRAYQDQ [K20W] | -0.372 ± 0.072
45 | GALPANLDDMKVAELKQELKLRSLGVSGTKTELIERLRAYQDQ [P25G] | -0.186 ± 0.059
46 | GALPANLDDMKVAELKQELKLRSLDVSGTKTELIERLRAYQDQ [P25D] | -0.197 ± 0.088
47 | GALPANLDDMKVAELKQELKLRSLHVSGTKTELIERLRAYQDQ [P25H] | -0.875 ± 0.21
48 | GALPANLDDMKVAELKQELKLRSLVVSGTKTELIERLRAYQDQ [P25V] | -0.358 ± 0.11
49 | GALPANLDDMKVAELKQELKLRSLAVSGTKTELIERLRAYQDQ [P25A] | -0.263 ± 0.069
50 | GALPANLDDMKVAELKQELKLRSLRVSGTKTELIERLRAYQDQ [P25R] | -0.304 ± 0.069
51 | GALPANLDDMKVAELKQELKLRSLLVSGTKTELIERLRAYQDQ [P25L] | -0.542 ± 0.074
52 | GALPANLDDMKVAELKQELKLRSLYVSGTKTELIERLRAYQDQ [P25Y] | -0.293 ± 0.18
53 | GALPANLDDMKVAELKQELKLRSLEVSGTKTELIERLRAYQDQ [P25E] | -0.055 ± 0.076
54 | GALPANLDDMKVAELKQELKLRSLWVSGTKTELIERLRAYQDQ [P25W] | -0.808 ± 0.072
55 | GALPANLDDMKVAELKQELKLRSLFVSGTKTELIERLRAYQDQ [P25F] | -0.963 ± 0.14
56 | GALPANLDDMKVAELKQELKLRSLIVSGTKTELIERLRAYQDQ [P25I] | 0.319 ± 0.25
57 | GALPANLDDMKVAELKQELKLRSLKVSGTKTELIERLRAYQDQ [P25K] | -0.135 ± 0.1
58 | GALPANLDDMKVAELKQELKLRSLQVSGTKTELIERLRAYQDQ [P25Q] | -0.167 ± 0.44
59 | GALPANLDDMKVAELKQELKLRSLSVSGTKTELIERLRAYQDQ [P25S] | -0.165 ± 0.077
